Drawing on article PMC6399465, this text covers Kd for 1 substance.

In the assay the target is biotinylated IRF3-Flag (UniProt Q14653). Description: BLI; Forte-Bio Octet Red; 10 ug/ml biotinylated IRF3-Flag coupled to biosensors, immersed in ICP27-Flag (50, 200, 500 or 800 nM); proteins in PBS.
Sequence of UniProt Q14653 (Q14653 whole entry): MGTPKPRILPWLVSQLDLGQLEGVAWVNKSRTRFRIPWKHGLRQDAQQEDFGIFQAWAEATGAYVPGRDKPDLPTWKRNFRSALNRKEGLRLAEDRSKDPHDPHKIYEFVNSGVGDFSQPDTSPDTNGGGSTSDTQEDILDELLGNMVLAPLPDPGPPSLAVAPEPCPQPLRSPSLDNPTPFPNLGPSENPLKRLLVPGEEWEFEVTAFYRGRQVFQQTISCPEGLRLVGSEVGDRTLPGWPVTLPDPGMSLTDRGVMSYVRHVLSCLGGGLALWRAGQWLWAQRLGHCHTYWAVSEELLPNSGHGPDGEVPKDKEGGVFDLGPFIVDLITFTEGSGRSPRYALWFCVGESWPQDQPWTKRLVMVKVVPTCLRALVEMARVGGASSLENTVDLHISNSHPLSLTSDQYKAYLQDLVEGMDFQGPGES

The substance “ICP27-Flag (purified from HEK 293F) (from UniProt P28276 1-512) (natural protein)” came in with a Kd of 20.3 nM.

A word on the Kd: it is the constant that tells how readily two partners part at equilibrium. High values mean lower affinity, low ones higher affinity.
